According to US10696719B2, “Nucleoside triphosphate transporter and uses thereof” (THE SCRIPPS RESEARCH INSTITUTE, priority 2016, dated 2020):

B1: PtNTT2(66-575): N-terminally truncated PtNTT2 variant, amino acids 1-65 removed, SEQ ID NO: 4 (protein, listed as Phaeodactylum tricornutum)
chain: MGGSTVAPTTPLATGGALRKVRQAVFPIYGNQEVTKFLLIGSIKFFIILALTLTRDTKDTLIVTQCGAEAIAFLKIYGVLPAATAFIALYSKMSNAMGKKMLFYSTCIPFFTFFGLFDVFIYPNAERLHPSLEAVQAILPGGAASGGMAVLAKIATHWTSALFYVMAEIYSSVSVGLLFWQFANDVVNVDQAKRFYPLFAQMSGLAPVLAGQYVVRFASKAVNFEASMHRLTAAVTFAGIMICIFYQLSSSYVERTESAKPAADNEQSIKPKKKKPKMSMVESGKFLASSQYLRLIAMLVLGYGLSINFTEIMWKSLVKKQYPDPLDYQRFMGNFSSAVGLSTCIVIFFGVHVIRLLGWKVGALATPGIMAILALPFFACILLGLDSPARLEIAVIFGTIQSLLSKTSKYALFDPTTQMAYIPLDDESKVKGKAAIDVLGSRIGKSGGSLIQQGLVFVFGNIINAAPVVGVVYYSVLVAWMSAAGRLSGLFQAQTEMDKADKMEAKTNKEK
B2: PtNTT2: nucleoside triphosphate transporter from Phaeodactylum tricornutum, full length, SEQ ID NO: 1 (protein, listed as Phaeodactylum tricornutum)
chain: MRPYPTIALISVFLSAATRISATSSHQASALPVKKGTHVPDSPKLSKLYIMAKTKSVSSSFDPPRGGSTVAPTTPLATGGALRKVRQAVFPIYGNQEVTKFLLIGSIKFFIILALTLTRDTKDTLIVTQCGAEAIAFLKIYGVLPAATAFIALYSKMSNAMGKKMLFYSTCIPFFTFFGLFDVFIYPNAERLHPSLEAVQAILPGGAASGGMAVLAKIATHWTSALFYVMAEIYSSVSVGLLFWQFANDVVNVDQAKRFYPLFAQMSGLAPVLAGQYVVRFASKAVNFEASMHRLTAAVTFAGIMICIFYQLSSSYVERTESAKPAADNEQSIKPKKKKPKMSMVESGKFLASSQYLRLIAMLVLGYGLSINFTEIMWKSLVKKQYPDPLDYQRFMGNFSSAVGLSTCIVIFFGVHVIRLLGWKVGALATPGIMAILALPFFACILLGLDSPARLEIAVIFGTIQSLLSKTSKYALFDPTTQMAYIPLDDESKVKGKAAIDVLGSRIGKSGGSLIQQGLVFVFGNIINAAPVVGVVYYSVLVAWMSAAGRLSGLFQAQTEMDKADKMEAKTNKEK

Assays:
Format in all cases: cell-based
E. coli BL21(DE3) [1] = test system: E. coli BL21(DE3)
Description: (§1) Unless otherwise stated, liquid bacterial cultures were grown in 2×YT (casein peptone 16 g/L, yeast extract 10 g/L, NaCl 5 g/L) supplemented with potassium phosphate (50 mM, pH 7), referred to hereafter as “media”, and incubated at 37° C. in a 48-well flat bottomed plate (CELLSTAR, Greiner Bio-One) with shaking at 200 rpm. Solid growth media was prepared with 2% agar. Antibiotics were used, as appropriate, at the following concentrations: carbenicillin, 100 μg/mL; streptomycin, 50 μg/mL; kanamycin, 50 μg/mL; zeocin, 50 μg/mL; chloramphenicol, 33 μg/mL for plasmids, 5 μg/mL for chromosomal integrants. All selective agents were purchased commercially. Cell growth, indicated as OD600, was measured using a Perkin Elmer Envision 2103 Multilabel Reader with a 590/20 nm filter.
(§2) Doubling times for strains grown in the dATP uptake assay were calculated by doubling time as (t2−t1)/log2(OD600,2/OD600,1), averaging across three, ˜30 min time intervals roughly corresponding to 30 min prior to dATP uptake and 60 min during dATP uptake.

E. coli BL21(DE3) [2] = assay: dATP uptake assay
Description: (§3) Radioactive uptake assays were conducted as described in Haferkamp, et al., “Tapping the nucleotide pool of the host: novel nucleotide carrier proteins of Protochlamydia amoebophila,” Mol. Microbiol. 60, 1534-1545 (2006) with the following modifications: C41(DE3) and BL21(DE3) strains carrying plasmid-based transporters and their appropriate empty plasmid controls, as well as BL21(DE3) chromosomal transporter integrants and their appropriate isogenic transporter-less control, were grown overnight with appropriate antibiotics (streptomycin for pCDF plasmids and chloramphenicol for pSC plasmids and integrants) in 500 μL of media. Cultures were diluted to an OD600 of 0.02 in 500 μL of fresh media, grown for 2.5 h, induced with IPTG (0-1 mM, pCDF strains only) or grown (all other strains) for 1 h, and incubated with dATP spiked with [α-^32P]-dATP (final concentration=250 μM (0.5 μCi/mL)) for ˜1 h. […]
(§4) Following incubation with dATP, 200 μL of each culture was collected through a 96-well 0.65 μm glass fiber filter plate (MultiScreen, EMD Millipore) under vacuum and washed with cold potassium phosphate (3×200 μL, 50 mM, pH 7) and cold ddH2O (1×200 μL). […] The resulting image was quantified by densitometric analysis using Image Studio Lite (LI-COR). […]

E. coli C41(DE3) [3] = assay: dATP uptake assay
Description: as §3, §4

E. coli C41(DE3) [4] = assay: growth / toxicity of transporter expression
Description: as §1, §2

Molecule	toxicity of expression (E. coli BL21(DE3) [1])	uptake of [α-32P]-dATP (E. coli BL21(DE3) [2])	uptake of [α-32P]-dATP (E. coli C41(DE3) [3])	toxicity of expression (E. coli C41(DE3) [4])
T7 RNAP: T7 RNA polymerase expressed in the E. coli (DE3) host strains	toxic			
B1	little increase in toxicity	increased levels	reduced uptake	lower toxicity relative to the full length PtNTT2
B2				toxic
